B1: HC3B238 (CD3W246-HL-scFv-Fc x MHGB738-Fab-Fc) (bispecific antibody, human IgG1, kappa, L234A L235A)
scFv: EVQLVESGGGLVKPGGSLRLSCAASGFTFSRYNMNWVRQAPGKGLEWVSSISTSSNYIYYADSVKGRFTFSRDNAKNSLDLQMSGLRAEDTAIYYCTRGWGPFDYWGQGTLVTVSSGGSEGKSSGSGSESKSTGGSDIQMTQSPSSLSASVGDRVTITCRARQSIGTAIHWYQQKPGKAPKLLIKYASESISGVPSRFSGSGSGTDFTLTISSVQPEDFATYYCQQSGSWPYTFGQGTKLEIKEPKSSDKTHTCPPCPAPEAAGGPSVFLFPPKPKDTLMISRTPEVTCVVVSVSHEDPEVKFNWYVDGVEVHNAKTKPREEQYNSTYRVVSVLTVLHQDWLNGKEYKCKVSNKALPAPIEKTISKAKGQPREPQVYVYPPSREEMTKNQVSLTCLVKGFYPSDIAVEWESNGQPENNYKTTPPVLDSDGSFALVSKLTVDKSRWQQGNVFSCSVMHEALHNHYTQKSLSLSPG
heavy: QVQLQQSGPGLVKPSQTLSLTCAISGDSVSSNRAAWNWIRQSPSRGLEWLGRTYYRSKWYNDYAVSVKSRITINPDTSKNQISLQLNSVTPEDTAVYYCARVRPGIPFDYWGQGTPVTVSSASTKGPSVFPLAPSSKSTSGGTAALGCLVKDYFPEPVTVSWNSGALTSGVHTFPAVLQSSGLYSLSSVVTVPSSSLGTQTYICNVNHKPSNTKVDKKVEPKSCDKTHTCPPCPAPEAAGGPSVFLFPPKPKDTLMISRTPEVTCVVVSVSHEDPEVKFNWYVDGVEVHNAKTKPREEQYNSTYRVVSVLTVLHQDWLNGKEYKCKVSNKALPAPIEKTISKAKGQPREPQVYVLPPSREEMTKNQVSLLCLVKGFYPSDIAVEWESNGQPENNYLTWPPVLDSDGSFFLYSKLTVDKSRWQQGNVFSCSVMHEALHNHYTQKSLSLSPG
light: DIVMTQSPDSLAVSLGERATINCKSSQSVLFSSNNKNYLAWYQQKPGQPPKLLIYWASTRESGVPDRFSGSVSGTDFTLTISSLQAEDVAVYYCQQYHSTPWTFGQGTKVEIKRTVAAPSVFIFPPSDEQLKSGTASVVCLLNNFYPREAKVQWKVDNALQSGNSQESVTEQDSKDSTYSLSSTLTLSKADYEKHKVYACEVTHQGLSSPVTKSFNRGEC
B2: HC3B237 (CD3W246-LH-scFv-Fc x MHGB738-Fab-Fc) (bispecific antibody, human IgG1, kappa, L234A L235A)
scFv: DIQMTQSPSSLSASVGDRVTITCRARQSIGTAIHWYQQKPGKAPKLLIKYASESISGVPSRFSGSGSGTDFTLTISSVQPEDFATYYCQQSGSWPYTFGQGTKLEIKGGSEGKSSGSGSESKSTGGSEVQLVESGGGLVKPGGSLRLSCAASGFTFSRYNMNWVRQAPGKGLEWVSSISTSSNYIYYADSVKGRFTFSRDNAKNSLDLQMSGLRAEDTAIYYCTRGWGPFDYWGQGTLVTVSSEPKSSDKTHTCPPCPAPEAAGGPSVFLFPPKPKDTLMISRTPEVTCVVVSVSHEDPEVKFNWYVDGVEVHNAKTKPREEQYNSTYRVVSVLTVLHQDWLNGKEYKCKVSNKALPAPIEKTISKAKGQPREPQVYVYPPSREEMTKNQVSLTCLVKGFYPSDIAVEWESNGQPENNYKTTPPVLDSDGSFALVSKLTVDKSRWQQGNVFSCSVMHEALHNHYTQKSLSLSPGK
heavy: B1 heavy
light: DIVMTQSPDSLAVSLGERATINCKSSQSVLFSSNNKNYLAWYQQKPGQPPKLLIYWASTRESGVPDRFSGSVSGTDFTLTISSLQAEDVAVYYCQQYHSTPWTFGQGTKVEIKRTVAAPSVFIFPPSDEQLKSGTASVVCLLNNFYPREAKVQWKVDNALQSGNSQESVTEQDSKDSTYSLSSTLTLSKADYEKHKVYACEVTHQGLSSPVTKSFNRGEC
B3: HC3B236 (CD3B450-LH-scFv-Fc x MHGB738-Fab-Fc) (bispecific antibody, human IgG1, kappa, L234A L235A)
scFv: QSALTQPASVSGSPGQSITISCTGTSSNIGTYKFVSWYQQHPGKAPKVMIYEVSKRPSGVSNRFSGSKSGNTASLTISGLQAEDEADYYCVSYAGSGTLLFGGGTKLTVLGGSEGKSSGSGSESKSTGGSQVQLQQSGPGLVKPSQTLSLTCAISGDSVFNNNAAWSWIRQSPSRGLEWLGRTYYRSKWLYDYAVSVKSRITINPDTSKNQFSLQLNSVTPEDTAVYYCARGYSSSFDYWGQGTLVTVSSEPKSSDKTHTCPPCPAPEAAGGPSVFLFPPKPKDTLMISRTPEVTCVVVSVSHEDPEVKFNWYVDGVEVHNAKTKPREEQYNSTYRVVSVLTVLHQDWLNGKEYKCKVSNKALPAPIEKTISKAKGQPREPQVYVYPPSREEMTKNQVSLTCLVKGFYPSDIAVEWESNGQPENNYKTTPPVLDSDGSFALVSKLTVDKSRWQQGNVFSCSVMHEALHNHYTQKSLSLSPG
heavy: B1 heavy
light: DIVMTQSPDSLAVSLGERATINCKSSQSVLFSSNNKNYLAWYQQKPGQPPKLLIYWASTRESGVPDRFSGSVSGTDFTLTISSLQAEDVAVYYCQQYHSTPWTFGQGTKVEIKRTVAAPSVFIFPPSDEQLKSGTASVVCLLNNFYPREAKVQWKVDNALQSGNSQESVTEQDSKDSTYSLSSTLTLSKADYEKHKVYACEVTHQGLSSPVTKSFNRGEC
B4: HC3B235 (CD3B219-LH-scFv-Fc x MHGB738-Fab-Fc) (bispecific antibody, human IgG1, kappa, L234A L235A)
scFv: QTVVTQEPSLTVSPGGTVTLTCRSSTGAVTTSNYANWVQQKPGQAPRGLIGGTNKRAPGTPARFSGSLLGGKAALTLSGVQPEDEAEYYCALWYSNLWVFGGGTKLTVLGGSEGKSSGSGSESKSTGGSEVQLVESGGGLVQPGGSLRLSCAASGFTFNTYAMNWVRQAPGKGLEWVARIRSKYNNYATYYAASVKGRFTISRDDSKNSLYLQMNSLKTEDTAVYYCVRHGNFGNSYVSWFAYWGQGTLVTVSSEPKSSDKTHTCPPCPAPEAAGGPSVFLFPPKPKDTLMISRTPEVTCVVVSVSHEDPEVKFNWYVDGVEVHNAKTKPREEQYNSTYRVVSVLTVLHQDWLNGKEYKCKVSNKALPAPIEKTISKAKGQPREPQVYVYPPSREEMTKNQVSLTCLVKGFYPSDIAVEWESNGQPENNYKTTPPVLDSDGSFALVSKLTVDKSRWQQGNVFSCSVMHEALHNHYTQKSLSLSPG
heavy: B1 heavy
light: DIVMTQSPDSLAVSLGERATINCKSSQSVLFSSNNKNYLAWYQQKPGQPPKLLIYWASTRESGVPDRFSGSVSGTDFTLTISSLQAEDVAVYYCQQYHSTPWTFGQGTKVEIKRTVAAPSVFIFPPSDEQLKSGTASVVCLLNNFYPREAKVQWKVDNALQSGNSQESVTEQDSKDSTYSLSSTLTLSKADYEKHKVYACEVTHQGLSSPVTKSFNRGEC
B5: HC3B125 (CD3B376-Fab-Fc x MHGB732-LH-scFv-Fc, no C-terminal Lys) (bispecific antibody, human IgG1, lambda, L234A L235A)
heavy: QVQLQQSGPRLVRPSQTLSLTCAISGDSVFNNNAAWSWIRQSPSRGLEWLGRTYYRSKWLYDYAVSVKSRITVNPDTSRNQFTLQLNSVTPEDTALYYCARGYSSSFDYWGQGTLVTVSSASTKGPSVFPLAPSSKSTSGGTAALGCLVKDYFPEPVTVSWNSGALTSGVHTFPAVLQSSGLYSLSSVVTVPSSSLGTQTYICNVNHKPSNTKVDKKVEPKSCDKTHTCPPCPAPEAAGGPSVFLFPPKPKDTLMISRTPEVTCVVVSVSHEDPEVKFNWYVDGVEVHNAKTKPREEQYNSTYRVVSVLTVLHQDWLNGKEYKCKVSNKALPAPIEKTISKAKGQPREPQVYVYPPSREEMTKNQVSLTCLVKGFYPSDIAVEWESNGQPENNYKTTPPVLDSDGSFALVSKLTVDKSRWQQGNVFSCSVMHEALHNHYTQKSLSLSPG
light: QSALTQPASVSGSPGQSITISCTGTSSNIGTYKFVSWYQQHPDKAPKVLLYEVSKRPSGVSSRFSGSKSGNTASLTISGLQAEDQADYHCVSYAGSGTLLFGGGTKLTVLGQPKAAPSVTLFPPSSEELQANKATLVCLISDFYPGAVTVAWKADSSPVKAGVETTTPSKQSNNKYAASSYLSLTPEQWKSHRSYSCQVTHEGSTVEKTVAPTECS
scFv: DIVMTQSPDSLAVSLGERATINCKSSQSVLHSSNNKNYLTWFQQKPGQPPKLLIYWASTRESGVPDRFSGSGSGTDFTLTISSLQAEDVAVYYCHQYYSTPPTFGQGTKVEIKGGSEGKSSGSGSESKSTGGSQVQLQQSGPGLVKPSQTLSLTCAISGDSVSSNSAAWNWIRQSPSRGLEWLGRTYYRSKWYNDYAVSVKSRITINPDTSKNQISLQLNSVTPEDTAVYYCAGDRRYGIVGLPFAYWGQGTLVTVSSEPKSSDKTHTCPPCPAPEAAGGPSVFLFPPKPKDTLMISRTPEVTCVVVSVSHEDPEVKFNWYVDGVEVHNAKTKPREEQYNSTYRVVSVLTVLHQDWLNGKEYKCKVSNKALPAPIEKTISKAKGQPREPQVYVLPPSREEMTKNQVSLLCLVKGFYPSDIAVEWESNGQPENNYLTWPPVLDSDGSFFLYSKLTVDKSRWQQGNVFSCSVMHEALHNHYTQKSLSLSPG
B6: HC3B232 (CD3W246-LH-scFv-Fc x MHGB732-Fab-Fc) (bispecific antibody, human IgG1, kappa, L234A L235A)
scFv: B2 scFv
heavy: QVQLQQSGPGLVKPSQTLSLTCAISGDSVSSNSAAWNWIRQSPSRGLEWLGRTYYRSKWYNDYAVSVKSRITINPDTSKNQISLQLNSVTPEDTAVYYCAGDRRYGIVGLPFAYWGQGTLVTVSSASTKGPSVFPLAPSSKSTSGGTAALGCLVKDYFPEPVTVSWNSGALTSGVHTFPAVLQSSGLYSLSSVVTVPSSSLGTQTYICNVNHKPSNTKVDKKVEPKSCDKTHTCPPCPAPEAAGGPSVFLFPPKPKDTLMISRTPEVTCVVVSVSHEDPEVKFNWYVDGVEVHNAKTKPREEQYNSTYRVVSVLTVLHQDWLNGKEYKCKVSNKALPAPIEKTISKAKGQPREPQVYVLPPSREEMTKNQVSLLCLVKGFYPSDIAVEWESNGQPENNYLTWPPVLDSDGSFFLYSKLTVDKSRWQQGNVFSCSVMHEALHNHYTQKSLSLSPG
light: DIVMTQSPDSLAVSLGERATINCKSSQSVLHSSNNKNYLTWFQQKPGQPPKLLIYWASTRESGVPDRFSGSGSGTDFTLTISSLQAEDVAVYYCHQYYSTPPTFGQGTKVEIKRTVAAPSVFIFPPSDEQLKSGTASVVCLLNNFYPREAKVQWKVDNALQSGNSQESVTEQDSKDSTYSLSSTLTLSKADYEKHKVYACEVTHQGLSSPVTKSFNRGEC
B7: HC3B231 (CD3B450-LH-scFv-Fc x MHGB732-Fab-Fc) (bispecific antibody, human IgG1, kappa, L234A L235A)
scFv: B3 scFv
heavy: B6 heavy
light: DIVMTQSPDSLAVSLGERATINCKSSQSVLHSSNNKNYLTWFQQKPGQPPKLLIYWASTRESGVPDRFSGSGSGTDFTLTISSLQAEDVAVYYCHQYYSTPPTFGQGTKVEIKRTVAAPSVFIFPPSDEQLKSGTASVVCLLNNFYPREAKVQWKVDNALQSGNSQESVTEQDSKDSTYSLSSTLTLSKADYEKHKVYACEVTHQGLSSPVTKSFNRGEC
B8: HC3B230 (CD3B219-LH-scFv-Fc x MHGB732-Fab-Fc) (bispecific antibody, human IgG1, kappa, L234A L235A)
scFv: B4 scFv
heavy: B6 heavy
light: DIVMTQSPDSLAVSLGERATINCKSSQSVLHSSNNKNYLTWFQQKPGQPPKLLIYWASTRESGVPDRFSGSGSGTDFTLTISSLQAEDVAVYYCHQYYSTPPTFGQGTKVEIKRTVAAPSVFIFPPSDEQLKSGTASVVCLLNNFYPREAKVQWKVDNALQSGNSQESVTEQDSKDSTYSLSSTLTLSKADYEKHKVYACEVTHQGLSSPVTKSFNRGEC

Molecular target: HLA-G on NCI-H2009-b2m target cells (human, UniProt P17693 25-338)
Assay: cell-based or functional assay

Binder | Cytotoxicity, EC50 (M); T cell-mediated cytotoxicity against NCI-H2009-b2m cells, 72 hr, E:T 3:1 [M]
B1 | 1.73e-11
B2 | 1.33e-10
B3 | 4.54e-09
B4 | 8.37e-11
B5 | 5.65e-11
B6 | 6.77e-12
B7 | 1.26e-10
B8 | 9.92e-12

— patent publication US20220033505A1 (Janssen / Centocor, published 2022)
